Where a chain is given by its changes, count along the chain named.
B1: zampilimab (antibody, V domains shown)
VH: EVQLLESGGGLVQPGGSLRLSCAASGFTLSTHAMSWVRQAPGKGLEWVATISSGGRSTYYPDSVKGRFTISRDNSKNTLYLQMNSLRAEDTAVYFCARLISTYWGQGTLVTVSS
VL: DITMTQSPSSLSASVGDRVTITCKASQDINSYLTWFQQKPGKAPKILIYLVNRLVDGVPSRFSGSGSGQDYALTISSLQPEDFATYYCLQYDDFPYTFGQGTKVEIK
notes: humanized DC1 VH; DC1 CDRs grafted on the human framework AF062260 with back mutation of the 5 Å Proximity residues; human heavy chain constant region; humanized DC1 VK; DC1 CDRs grafted on the human framework AF193851 with back mutation of the 5 Å Proximity residues; The discussion speaks of zampilimab as an IgG4P antibody in the monkey study; also called hDC1; UCB7858; source: Expi293 cells, …
B2: hBB7 (antibody, V domains shown)
VH: B1 VH with F27I, T28I, L29F, T31S, H32S, I70V, N74S, F95Y, R98K, T102P
VL: B1 VL with T3K, I46T, V51T, V55M, D70E, Y71F, A72L, D92V
notes: humanized BB7 VH; BB7 CDRs grafted on the human framework AF062260 with back mutation of the 5 Å Proximity residues; human heavy chain constant region; humanized BB7 VK; BB7 CDRs grafted on the human framework AF193851 with back mutation of the 5 Å Proximity residues; also called humanized BB7; source: Expi293 cells, co-transfected heavy and kappa light chain vectors, purified from supernatant …
B3: mBB7 (antibody, V domains shown)
VH: AVQLVESGGGLVKPGGSLKLSCAASGIIFSSSAMSWVRQTPEKRLEWVATISSGGRSTYYPDSVKGRFTVSRDSAKNTLYLQMDSLRSEDTAIYYCAKLISPYWGQGTTLTVSS
VL: AIKMTQSPSSMYASLGERVIITCKASQDINSYLTWFQQKPGKSPKTLIYLTNRLMDGVPSRFSGSGSGQEFLLTISGLEHEDMGIYYCLQYVDFPYTFGGGTKLEIK
B4: mDC1 (antibody, V domains shown)
VH: EVQLVESGGGLVKPGGSLKLSCAASGFTLSTHAMSWVRQTPEKRLEWVATISSGGRSTYYPDSVKGRFTISRDNVKNTLYLQLSSLRSEDTAVYFCARLISTYWGQGTTLTVSS
VL: DITMTQSPSSIYASLGERVTITCKASQDINSYLTWFQQKPGKSPKILIYLVNRLVDGVPSRFSGSGSGQDYALTISSLEYEDMGIYYCLQYDDFPYTFGGGTKLEIK

Key:
zampilimab (human) [1] = assay: SPR; as the SPR with calcium (antibody captured by anti-human Fc, TG2 flowed over) but in the absence of calcium (-Ca2+); buffer of this condition not detailed
zampilimab (human) [2] = assay: SPR; BIAcore T200; test antibody captured (~100-200 RU) by goat anti-human IgG Fc F(ab')2 immobilised on a CM5 chip; TG2 titrated over it at 100 nM to 6.25 nM, 600 s association, up to 3200 s dissociation; 10 mM HEPES pH 7.4, 0.15 M NaCl, 0.005% Surfactant P20, 2 mM CaCl2 (+Ca2+); 1:1 fit
[3] = target: cynomolgus monkey transglutaminase 2 (cynomolgus monkey)
human transglutaminase 2 [4] = target: T1, human transglutaminase 2 (Homo sapiens, UniProt P21980); assay: SPR; as the SPR with calcium (antibody captured by anti-human Fc, TG2 flowed over) but in the absence of calcium (-Ca2+); buffer of this condition not detailed; details: both partners purified
T1 construct: transglutaminase 2 (TG2), human; also called Human TG2; TG2; source: produced internally by UCB Pharma, UK
T1 sequence (P21980 whole entry): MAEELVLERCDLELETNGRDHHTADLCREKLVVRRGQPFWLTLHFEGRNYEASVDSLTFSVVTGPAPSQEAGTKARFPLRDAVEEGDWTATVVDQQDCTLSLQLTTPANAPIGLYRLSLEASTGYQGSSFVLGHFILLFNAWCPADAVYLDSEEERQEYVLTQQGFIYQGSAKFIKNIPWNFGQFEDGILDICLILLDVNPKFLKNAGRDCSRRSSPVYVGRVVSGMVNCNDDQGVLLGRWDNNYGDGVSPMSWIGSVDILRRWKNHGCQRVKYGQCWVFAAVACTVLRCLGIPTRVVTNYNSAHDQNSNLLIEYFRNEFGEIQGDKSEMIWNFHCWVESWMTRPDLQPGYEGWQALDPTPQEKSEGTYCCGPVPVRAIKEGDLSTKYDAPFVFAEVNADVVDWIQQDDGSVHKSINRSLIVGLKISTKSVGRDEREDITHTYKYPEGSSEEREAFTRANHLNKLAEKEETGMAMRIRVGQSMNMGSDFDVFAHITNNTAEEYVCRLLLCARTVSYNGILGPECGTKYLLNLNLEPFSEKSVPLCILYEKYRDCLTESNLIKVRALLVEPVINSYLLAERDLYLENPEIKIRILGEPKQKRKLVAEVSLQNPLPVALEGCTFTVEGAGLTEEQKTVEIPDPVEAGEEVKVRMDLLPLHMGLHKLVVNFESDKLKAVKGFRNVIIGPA

human transglutaminase 2 [5] = target: T1, human transglutaminase 2; assay: cell-based or functional assay
TG5 = target: T2, TG5 (Homo sapiens (assumed), UniProt O43548); assay: ELISA; ELISA of the humanized antibodies on TG2 and other TG family members; antibody up to 100 nM; format not described
T2 construct: transglutaminase family member TG5; also called transglutaminase 5
T2 sequence (O43548 whole entry): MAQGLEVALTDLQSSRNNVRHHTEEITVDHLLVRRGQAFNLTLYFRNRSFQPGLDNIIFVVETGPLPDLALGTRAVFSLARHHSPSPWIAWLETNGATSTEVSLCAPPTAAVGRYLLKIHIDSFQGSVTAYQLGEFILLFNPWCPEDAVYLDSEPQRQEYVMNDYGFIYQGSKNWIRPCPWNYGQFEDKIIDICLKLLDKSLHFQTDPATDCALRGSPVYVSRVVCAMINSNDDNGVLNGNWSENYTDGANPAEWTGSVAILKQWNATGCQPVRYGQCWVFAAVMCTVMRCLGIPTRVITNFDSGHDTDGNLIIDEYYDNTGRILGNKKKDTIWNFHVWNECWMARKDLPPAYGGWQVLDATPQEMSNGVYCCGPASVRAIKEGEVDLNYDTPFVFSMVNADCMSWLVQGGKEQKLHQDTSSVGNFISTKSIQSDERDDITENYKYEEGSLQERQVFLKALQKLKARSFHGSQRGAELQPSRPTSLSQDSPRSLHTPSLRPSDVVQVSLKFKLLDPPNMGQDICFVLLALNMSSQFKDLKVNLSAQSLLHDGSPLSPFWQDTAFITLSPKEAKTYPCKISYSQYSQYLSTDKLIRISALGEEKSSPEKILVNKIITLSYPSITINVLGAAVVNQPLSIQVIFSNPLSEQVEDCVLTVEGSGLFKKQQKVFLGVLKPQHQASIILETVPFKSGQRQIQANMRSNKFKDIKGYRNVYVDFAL

[6] = target: T3, TG2 (as used in the ELISA of the humanized antibodies) (Homo sapiens (assumed), UniProt P21980); assay: as above
T3 construct: transglutaminase 2 (TG2); also called transglutaminase 2
T3 sequence (P21980 whole entry): as the sequence (P21980 whole entry) above

TG1 = target: T4, TG1 (Homo sapiens (assumed), UniProt P22735); assay: as above
T4 construct: transglutaminase family member TG1; also called transglutaminase 1
T4 sequence (P22735 whole entry): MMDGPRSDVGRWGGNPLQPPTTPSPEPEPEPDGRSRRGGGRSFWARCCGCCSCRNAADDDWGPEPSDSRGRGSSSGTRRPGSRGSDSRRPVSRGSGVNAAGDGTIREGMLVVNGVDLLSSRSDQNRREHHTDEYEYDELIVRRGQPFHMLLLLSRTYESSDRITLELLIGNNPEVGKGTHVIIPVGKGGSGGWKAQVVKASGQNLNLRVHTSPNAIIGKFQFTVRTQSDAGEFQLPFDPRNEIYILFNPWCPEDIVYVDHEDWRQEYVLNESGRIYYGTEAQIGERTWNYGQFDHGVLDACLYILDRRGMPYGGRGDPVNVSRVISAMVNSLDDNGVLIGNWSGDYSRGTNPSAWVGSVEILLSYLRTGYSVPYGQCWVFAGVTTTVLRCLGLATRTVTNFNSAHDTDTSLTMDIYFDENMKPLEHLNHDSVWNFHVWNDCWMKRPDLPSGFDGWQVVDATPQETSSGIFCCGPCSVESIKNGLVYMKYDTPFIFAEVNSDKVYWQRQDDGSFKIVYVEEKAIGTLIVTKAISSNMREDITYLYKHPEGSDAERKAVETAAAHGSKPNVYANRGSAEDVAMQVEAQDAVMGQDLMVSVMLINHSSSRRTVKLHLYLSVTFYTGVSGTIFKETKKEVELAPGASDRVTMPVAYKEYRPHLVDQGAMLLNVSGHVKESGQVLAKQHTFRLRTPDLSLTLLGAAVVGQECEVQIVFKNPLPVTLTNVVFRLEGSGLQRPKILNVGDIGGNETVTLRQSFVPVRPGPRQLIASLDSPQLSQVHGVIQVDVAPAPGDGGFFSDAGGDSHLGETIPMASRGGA

TG7 = target: T5, TG7 (Homo sapiens (assumed), UniProt Q96PF1); assay: as above
T5 construct: transglutaminase family member TG7; also called transglutaminase 7
T5 sequence (Q96PF1 whole entry): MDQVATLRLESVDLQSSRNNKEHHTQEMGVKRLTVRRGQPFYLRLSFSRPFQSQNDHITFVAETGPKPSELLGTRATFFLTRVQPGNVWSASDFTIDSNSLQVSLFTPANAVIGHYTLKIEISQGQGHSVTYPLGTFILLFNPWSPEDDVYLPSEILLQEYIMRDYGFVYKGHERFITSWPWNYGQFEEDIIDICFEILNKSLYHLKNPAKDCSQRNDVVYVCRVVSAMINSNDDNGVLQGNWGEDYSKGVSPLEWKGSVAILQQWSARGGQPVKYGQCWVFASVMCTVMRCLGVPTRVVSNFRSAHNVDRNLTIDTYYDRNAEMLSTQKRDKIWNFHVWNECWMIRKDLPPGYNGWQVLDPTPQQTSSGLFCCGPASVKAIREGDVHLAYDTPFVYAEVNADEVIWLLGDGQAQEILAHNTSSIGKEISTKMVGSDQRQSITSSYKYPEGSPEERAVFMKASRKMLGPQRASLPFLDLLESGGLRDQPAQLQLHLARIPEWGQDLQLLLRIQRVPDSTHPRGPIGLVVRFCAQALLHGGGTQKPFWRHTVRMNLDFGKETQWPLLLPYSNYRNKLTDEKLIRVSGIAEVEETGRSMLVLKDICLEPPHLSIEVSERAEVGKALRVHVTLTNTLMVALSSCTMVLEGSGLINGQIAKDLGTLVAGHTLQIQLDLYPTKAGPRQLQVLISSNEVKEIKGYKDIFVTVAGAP

TG3 = target: T6, TG3 (Homo sapiens (assumed), UniProt Q08188); assay: as above
T6 construct: transglutaminase family member TG3; also called transglutaminase 3
T6 sequence (Q08188 whole entry): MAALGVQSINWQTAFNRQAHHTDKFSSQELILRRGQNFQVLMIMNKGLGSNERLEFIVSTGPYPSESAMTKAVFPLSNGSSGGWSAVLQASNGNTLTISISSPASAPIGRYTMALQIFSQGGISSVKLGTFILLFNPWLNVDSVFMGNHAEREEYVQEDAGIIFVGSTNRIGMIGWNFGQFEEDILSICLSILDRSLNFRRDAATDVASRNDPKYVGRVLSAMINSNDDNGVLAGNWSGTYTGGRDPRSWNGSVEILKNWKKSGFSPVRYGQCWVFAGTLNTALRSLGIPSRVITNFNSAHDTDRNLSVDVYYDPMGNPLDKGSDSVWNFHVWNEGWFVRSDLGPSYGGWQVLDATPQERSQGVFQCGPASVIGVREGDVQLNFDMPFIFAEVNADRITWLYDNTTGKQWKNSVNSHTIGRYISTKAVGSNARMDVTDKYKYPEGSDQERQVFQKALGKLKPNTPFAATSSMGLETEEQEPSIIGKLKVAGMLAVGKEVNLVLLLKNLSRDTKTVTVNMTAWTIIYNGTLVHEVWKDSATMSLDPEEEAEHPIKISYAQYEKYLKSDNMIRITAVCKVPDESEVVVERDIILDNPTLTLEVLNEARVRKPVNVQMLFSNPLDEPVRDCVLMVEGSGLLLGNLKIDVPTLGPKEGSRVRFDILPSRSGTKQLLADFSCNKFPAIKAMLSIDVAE

[7] = target: rabbit transglutaminase 2 (Oryctolagus cuniculus (rabbit), UniProt A0A5F9DRZ3); assay: cell-based or functional assay
human transglutaminase 2 [8] = target: T1, human transglutaminase 2; assay: cell-based or functional assay; remark: listed apart in the source
human transglutaminase 2 [9] = target: T1, human transglutaminase 2; assay: SPR; BIAcore T200; test antibody captured (~100-200 RU) by goat anti-human IgG Fc F(ab')2 immobilised on a CM5 chip; TG2 titrated over it at 100 nM to 6.25 nM, 600 s association, up to 3200 s dissociation; 10 mM HEPES pH 7.4, 0.15 M NaCl, 0.005% Surfactant P20, 2 mM CaCl2 (+Ca2+); 1:1 fit; details: both partners purified
[10] = target: rabbit transglutaminase 2 (rabbit)
human transglutaminase 2 [11] = target: T1, human transglutaminase 2

| Molecule | IC50 of inhibition of TG2 activity (KxD assay on recombinant protein by the text; biotin cadaverine incorporation by the table's footnote) [3] | binding result (TG5) | EC50 [6] | binding result (TG1) | binding result (TG7) | binding result (TG3) | IC50 of inhibition of TG2 activity (KxD assay on recombinant protein by the text; biotin cadaverine incorporation by the table's footnote) (human transglutaminase 2 [8]) | Kd (human transglutaminase 2 [9]) | binding result (human transglutaminase 2 [11]) | other results |
| --- | --- | --- | --- | --- | --- | --- | --- | --- | --- | --- |
| cynomolgus monkey transglutaminase 2 (enzyme) |  |  |  |  |  |  |  |  |  | Kd (zampilimab (human) [1]): < 50 pM; Kd (zampilimab (human) [2]): < 37 pM |
| B1 | 220 pM | no binding (tested: 100 nM) | ~20 pM | no binding (tested: 100 nM) | no binding (tested: 100 nM) | no binding (tested: 100 nM) | 250 pM | < 50 pM |  | Kd (human transglutaminase 2 [4]): < 107 pM; IC50 of inhibition of extracellular TG activity (biotin cadaverine incorporation) in primary human RPTEC induced with TGF-β1, four independent studies (human transglutaminase 2 [5]): 119000 pM; IC50 of inhibition of TG2 activity (KxD assay on recombinant protein by the text; biotin cadaverine incorporation by the table's footnote) [7]: 103000 pM |
| B2 | 250 pM | no binding (tested: 100 nM) | ~20 pM | no binding (tested: 100 nM) | no binding (tested: 100 nM) | no binding (tested: 100 nM) | 280 pM | < 60 pM |  | IC50 of inhibition of TG2 activity (KxD assay on recombinant protein by the text; biotin cadaverine incorporation by the table's footnote) [10]: 6590 pM |
| B3 |  |  |  |  |  |  |  |  | binds |  |
| B4 |  |  |  |  |  |  |  |  | binds |  |

From article PMC11098434, “The effect of TG2-inhibitory monoclonal antibody zampilimab on tissue fibrosis in human in vitro and primate in vivo models of chronic kidney disease” (PLOS ONE, 2024)
